Here are results for 1 substance from patent US20210324063A1.

The target of this experiment is recombinant human VEGF-165 (R&D Systems) (human) (UniProt P15692).
Sequence of recombinant human VEGF-165 (R&D Systems) (human) (P15692 other isoform, or with tags, fused parts or gaps limits assumed): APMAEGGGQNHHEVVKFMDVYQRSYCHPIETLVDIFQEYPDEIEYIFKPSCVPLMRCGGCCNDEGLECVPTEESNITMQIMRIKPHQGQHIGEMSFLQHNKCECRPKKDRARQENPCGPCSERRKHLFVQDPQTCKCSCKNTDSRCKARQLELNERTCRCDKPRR

Regarding Eylea (aflibercept) (Fc fusion), the IC50, inhibition of VEGF-stimulated HuRMVEC proliferation (WST-1, OD450) is 683 pM.
